For 24 sequences, protein production results are on record in a protein production outcome set (Wang et al. 2014).
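Further: failed if final PepcDB status was selected cloned or expressed and not failed if soluble or beyond.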

The data set in a line: label from the status in PepcDB records.
On to “MRSDGRKEDQLRPVSIQRDFLEYPEGSCLISFGKTKVICTASVIENVPNWLKGKGQGWITAEYSMLPRATQQRTIRESVQGRIGGRTHEIQRMIGRAMRTAVELTKIGERTIWVDCDVIQADGGTRTAAITGAFVAVADAIIKLHKEGIIEETPIKDFVAAVSVGIVNDRILLDLNFEEDSAAQVDMNVVGTGSGRLSEVHTMGEEYSFTKDELIKMLDLAQKGINELIELQKKLYVIQDGKWERSELKEVSSTT”, for which the protein production entry is on record as “not failed”.

As to “MNLPPNPVIARGRGRGRKPNNVEANRGFAPSLGQKSDPSHSEGNQASGGNGGGGDAQVGPSIEKSSLSAVQMHKSEGDPRGSVRGRRLITDLVYSRPPGMTSKKGVVGTHITVQANYFKVLKRPNWTIYQYRVDFTPDVEATRLRRSFLY”, the protein production result was “failed”.

As for “ADGILGVDKLGHFIFANESATKITGYSEEQILSSDLISLFAGDNKENLTFEDTEVYKAIQSKEVIRISNEYVLMSGARELPLEYSISPVEDDE”, the protein production entry is listed as “failed”.

“MPPMLSGLLARLVKLLLGRHGSALHWRAAGAATVLLVIVLLAGSYLAVLAERGAPGAQLITYPRALWWSVETATTVGYGDLYPVTLWGRLVAVVVMVAGITSFGLVTAALATWFVGREQERRGHFVRHSEKAAEEAYTRTTRALHERFDRLERMLDDNRR”: the protein production entry is on record as “failed”.

Regarding “MATPTQTPTKAPEEPDPFYYDYNTVQTVGMTLATILFLLGILIVISKKVKCRKADSRSESPTCKSCKSELPSSAPGGGGV”, the protein production result is reported as “not failed”.

As for “MDGIFAGIICNQANRCLTWTSQQLFSEKISGAEGTKLDDEFLDMERKIDVTNKVVAEILSKTTEYLQPNPAYRAKLGMLNTVSKIRGQVKTTGYPQTEGLLGDCMLKYGKELGEDSTFGNALIEVGESMKLMAEVKDSLDINVKQTFIDPLQLLQDKDLKEIGHHLKKLEGRRLDYDYKKKRVGKIPDEEVRQAVEKFEESKELAERSMFNFLENDVEQVSQLAVFIEAALDYHRQSTEILQELQSKLQMRISAASSVPRREYKPRPVKRSSSELNGVSTTSVVKTTGSNIPMDQPCCRGLYDFEPENQGELGFKEGDIITLTNQIDENWYEGMIHGESGFFPINYVEVIVPLPQ”, the protein production result is listed as “not failed”.

With “MVTPSLRLVFVKGPREGDALDYKPGSTIRVGRIVRGNEIAIKDAGISTKHLRIESDSGNWVIQDLGSSNGTLLNSNALDPETSVNLGDGDVIKLGEYTSILVNFV”, the protein production result was “not failed”.

Turning to “MEGGYKLNITKAIVVAIYIIVGAALGVIIIPEVVTDLGIHHHAVITNYYVDGFIGIIIFFIIFGLFINKVTYAFKQFEQLIMRRSAVEILFATIGLIIGLFISVMVSFILEMIGNSILNHFVPMIITIILCYLGFQFGLKKRDEMLMFLPENMARSMSNNIRRATPKIVDTSAIIDGRILDIIRCGFIDGDILIPQGVINELQVIADAKDSVKREKGQRGLDILNQLYDLDYPTRVIHPTQSHSDIDTLLIKLAQQYHAHVITTDFNLNKVCHVQGITALNVNDLSEAIKPNVHQGDQLSILLTKIGKEPGQGVGYLDDGTMVVVDNAKSYIGQQVNLEVVSLLQTSSGRIVFAKFVD”, the protein production result is “failed”.

Turning to “MLEILMSLTAAICWAFNGIAYRKGVKDVSAFTANFHRTLFATVYFLPLALRDFPGVVIDLQTALVLVISAMLSFYIGDLSYFASLKRSPVSIALPASSTYPVYVVLLSTVIYGAELSLNALISAILVFVAVYIIYGSGEKGETSGLFYALLAAFSWALAILTLDFLTDRLPVSIVAFVRLLLCLILLSFTAKKDELSTEIRLFFRSVRGIFLLLGIMLFITAIKVSSSWNVVQPSSTSPVFAAIFGAIFLKERISFRLVAGIFVIILAILLLLLPPLQ”, the protein production entry is “failed”.

With “MKDYQKILVVVDPTTENQVALARAVTLASKSNAHVTVFLSIFDFSYEMTSILSSQEREAMRQGVIDQRVAWIQDLLAPYNHLGLNIDTQVIWHNRPFESIINHAIAGQYDLIVKGTHAHDKLKAVIFTPTDWHLMRKAPVPVLMVKDHDWPETGKILCAVNVATEDTDHQMLNGKIIEHAKDLAGKFAAEVHLVNGFPGTPVNLAIELPDFDAQTYNDTIRLQHEQRVQYLADAYGIDKQNCHVKEGLPEDVIPELAEQLDAELVILGTVGRTGFSAALIGNTAEHVIDSINCDLLAIKPDGYKSPLEEA”, the protein production entry is “not failed”.

With “MNFELSSPFSPTGDQPEAIAALSDGIKSGVPFQTLLGVTGSGKTFTIANVIKEVRKPTLILSHNKTLAAQLYSEFKAFFPNNAVEYFVSYYDYYQPEAYLPTTDTYIEKDLQINDEIDKLRLRATASLLSGRKDVIVVSSVSCLYGMADPTAFAEKVVHLEKGMRIDRDKLLRRFVDALYVNNKIEFNRGCFRVNGDTVDIFPAIETFDGAAYRIEFWDDEVDRISSFDPQTGQEIDEQDELNIYPTNLFVTTQERINTAIGQIDVDLGTQVNFLREIGKPYEAKRLYERVTFDLEMIRELGHCSGIENYSRYFDGRQAGERPFCLLDYFPKDFLLVVDESHVTIPQIRAMYGGDYSRKKNLVDYGFRLPAAMDNRPLTFDEFESLTPLAIYVSATPADYELEKSEGIVVDQVIRPTGLLDPVIEVRPTLNQIDDLMEEITQRAAVDERVLVTTLTKRMAEELTAYLTRMGIRCNYIHSDVDTLERIQIMDDLRKGLFDVLIGVNLLREGLDLPEVSLVAILDADKEGFLRSHRSLTQTAGRAARNVNGKVIFYADKITDSMRLTMDETARRREKQLAYNEKHGITPKQVIKNSVSLVAEKQQPVTGEPYAYVEPEPSLVADPVVQYMNRKQLEKAIERTKKQMMEAAKKLDFIEAAQFRDELVKLEDLLVTKKD”, the protein production result was “failed”.

In the case of “SVILFDRTFISPTEISDIYTKDAIGMKKADYLRKKLTSIFPEIEVQNLPDTINISNYLNDSDFDIIIVNSEHFNIKLLSELNDLLYKISTPYMYAWIEGSRGYIGPLIYPPDTSCFNCYLTWRFFGTFMEDKIKAINNYGSSGYIFPLDKIIGALTVLEVCKAIGSLGTPLFNKIILVEVLPTLTIRYIPILKDPKCNVCEG”, the protein production entry is “failed”.

Regarding “PFYTQGDSLTSEDHLDDTWVTVFGFPQASASYILLQFAQYGNILKHVMSNTGNWMHIRYQSKLQARKALSKDGRIFGESIMIGVKPCIDKNVMENSDRGVLSSPSL”, the protein production result was “not failed”.

Regarding “MGNIIRALVAFIPTDRCQSYVVGDLREMPLDRMVDLSGSQLRRFPLHVCSFTELVKLYLSDNHLHSLPPDLAQLQNLQILALDFNNFKALPQAVCTLKQLCILYLGNNKLCDLPDELSLLQNLRTLWLESNCLTRLPDVVCELSLLKTLHAGSNALRLLPGQLRRLRELRTIWLSGNQLADFPSVLLHMPFLEVIDVDRNSIRYFPSLAHLTNLKLVIYDHNPCRNAPKVGKGVRRVGRWAEETPEPDRRKTRRSALAKEENQEPPPLLPPSS”, the protein production result is “failed”.

“MPLLYILAIVVIVIILILLGIIAANYKKSGPQAALIVYGSGLGSKGVNKDSQGNRLKVVRGSGTFVLPIFQNARYLSLQSAAIDIKTEKVLSKDKIPVTVEATAMIKVGSTLQDIATAAEQFLGKRDEQRDAMADQVLRGHLRAIVGTMTVSELIEDRNKFSAEVQGQAGTDLSKMGLSIVSFVINDIRDDQNYIKALGAKEVARVQQEAAIAVANADKETRIQKAAADQDAQKAEALAATQVANAQKEKAISLAHYEQEQSIAAAEAKAQADQAQASADQAYAIQEAISKKETTEAEMQVELIKKQRETDLETQEVLRKAQENEANVVKAAEAAKAAQIAKAEADAREREVRAQAEAAAIEATAKATAKQREVTAMAEATAIEATGKAEAEAIRLKGLAEAEAIDKKAEAMQKMNDAAKLNMALEILPEVVASVSSNLQAVDSINIYGGEGSSKILGMSQESLKQGLDVLGTMGIDVPDLLNNFSSRGNSNETLEKVEKIEE”: the protein production entry is on record as “failed”.

Turning to “MRVASDAGDAETLLAAVPANQRVAIVDARFVGHLHALRLGLTDPRFEAAALAGAVSAQPGARQALTRALARESSAATGGATVVMDNLAERITAALDADGVQVHRPDLGTLVAAVPADPQARNEVRQAVTAVDDEAVRLRTAVKSRDGFFTTHFISPYSRYLARWCARRGLTPNQVTTASLLTALVAAGCAATGTRAGFVAAGLLLLFSFVLDCADGQLARYSLQYSTLGAWLDATFDRAKEYAYYAGLALGAARGGDDVWALALGAMVLQSCRHIVDFSFNEANHDATANTSPTAALSDKLDSVGWTVWLRRMIVLPIGERWAMIAVLTALTTPRITFYALLIGCAFAATYTTAGRVLRSLTRKARRTDRAAQALADLTDSGPLAEFLTRFARRLRLRGPACVALVTGALVVLAAALAPYGSWWPVLAAVTYVLLSPVALLKPLKGALDWLVPPFYRAAEYGTVLVLAAKADVNGALPAAFGLVAAVAYHHYDTVYRIRGNAGAPPHWLVRAIGGHEGRTLLVTVLAALLVPTDFKVALTALAVAVALVVLVESIRFWVSSQAPAVHDEGEPA”, the protein production entry is “failed”.

For “MRRTVRYILATSNPMGDLEALEKFVKLAPDTGADAIALIGNLMPKAAKSRDYAAFFRILSEAHLPTAYVPGPQDAPIWEYLREAANVELVHPEMRNVHETFTFWRGPYLVAGVGGEIADEGEPEEHEALRYPAWVAEYRLKALWELKDYPKIFLFHTMPYHKGLNEQGSHEVAHLIKTHNPLLVLVAGKGQKHEMLGASWVVVPGDLSEGEYSLLDLRARKLETGNVR”, the protein production result is reported as “not failed”.

Consider “MPVIHCNKDDSQEASSQTPFLPLGFVFTKLYICLTIYSGGDDESMDGDINKYLVLAIIGVGGLSGLVASQSTGRNFPPATANKTVGR”, for which the protein production result is recorded as “failed”.

As to “MIAHMTRDNEYKTIKDRLITLVEKEQAHRTLNQYNSDKANHDITRLSNKMRLLRRLIEHPVILNEKVSSLGNNTKRAVKGLATGLVMVAVTITAISARDYWGEITASFIIAMSFIYALREIFKDDLRDMLWRWISKGKAKWRRHYFDPTTGKQVGDKEEWLDYKKLSELPDRIQAIRKKRIVQREEQILHYRSHTEMSTSRFMSGYEETRETMMIDLRAIMRQMDKGSNHIYQLNNGQVSRESVEKRHLLNLIAKEKHHKGEPTYYRWKIVLNRSRIVDIESIPLT”, the protein production result is “failed”.

For the sequence “MGRFHQYQPRQLSVASVNHADDNDRLPAISLVTPSFNQASFVEKTLESVLGQNYPKLQYIVQDGLSTDGTREILGRYATRNVDIRIETDGGQTDALNKGFAHADGEIMGYLNSDDLLLPGTLCLVGRYFRDNPSVDVIYGNRLIVDEAGREVGRWVLPEHDSEILTFIDYVPQETMFWRRRIWERVGGRFDTDFHFAMDWELLLRFIHAGAVFRHLPGLFGAFRVHGQQKSQAEFLVRGIGEMNGLRLRYGGRNISFVRRIALHWAYLSQHRLADAAFEASLRKNG”, the protein production entry is listed as “failed”.

Regarding “MNTLSIYRFKQWLKEGESPLALTLFRIAKSIRHFELPTPRLLNKVLYGLHKTLCTQWQAFTHLIFYVPAFKGRLESYGKRTLLYGGLPFFSGPLTMRIGNDCRISGQTTFSGRTNSDNPTLEVGDNVDICWQTTIAVGNKVIIGNNVRIAGQGFLCGYPGHPIDPTERALGKPDLDSQVGDIILEQDVWLGSRVSIIGNVTVGEGTIVASGSVVTKSLPPFVLAAGNPAKVIKKLDVNASNTIKEEIHYEA”, the protein production entry is “failed”.

On to “MRNYIQGIDHVQVAAPVGCEEEARAFYGETIGMEEIPKPEELKKRGGCWFKCGNQEIHIGVEQNFNPAKRAHPAFYVLKIDEFKQELIKQGIEVIDDHARPDVIRFYVSDPFGNRIEFMENKN”, for which the protein production entry was “not failed”.

Regarding “MPRRSALLGQPLFRLLAINLAIGVTIAALLLGGLLYLNPGHLRDLIFADDSPGTALGLLLFGFVVTFGSAAMGSAIMAMGSDLRGGGKGGRKLALPIEMIPGAKAIPVRAEHGARAVRRHGSL”, the protein production result is “failed”.

On to “NTKQLRFEDVVNQSSPKNCTVYCGGIASGLTDQLMRQTFSPFGQIMEIRVFPEKGYSFVRFSTHESAAHAIVSVNGTTIEGHVVKCYWGKESPDMT”, for which the protein production entry was “not failed”.
